From paper PMC5362245, “Depletion of Arabidopsis SC35 and SC35-like serine/arginine-rich proteins affects the transcription and splicing of a subset of genes”

Columns and labels:
[1] = molecular target: T1, SCL30 (UniProt Q8L3X8 1-262); test: EMSA; 2 ug tRNA, 10 nM labeled RNA; 20 ul, 2 ug tRNA, 10 nM biotin-RNA, LightShift Chemiluminescent RNA EMSA kit buffer (salt and pH not stated), 30 min room temperature; 6% native PAGE in 0.5x TBE; settings: protein: recombinant; tags: His; label: 5' biotin
T1 sequence: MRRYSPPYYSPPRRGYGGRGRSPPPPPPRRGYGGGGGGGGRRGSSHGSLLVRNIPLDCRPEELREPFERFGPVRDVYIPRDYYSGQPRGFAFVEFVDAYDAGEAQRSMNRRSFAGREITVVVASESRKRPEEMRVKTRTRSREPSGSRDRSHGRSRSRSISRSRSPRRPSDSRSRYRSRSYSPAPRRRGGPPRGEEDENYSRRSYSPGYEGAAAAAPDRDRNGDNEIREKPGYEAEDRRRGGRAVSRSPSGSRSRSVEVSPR

[2] = molecular target: T1, SCL30; test: competition; 0.625-5 uM unlabeled RNA vs 10 nM N1, 0.4 ug SCL30; labeled binding abolished at 5 uM; 20 ul, 2 ug tRNA, 10 nM biotin-RNA, LightShift Chemiluminescent RNA EMSA kit buffer (salt and pH not stated), 30 min room temperature; 6% native PAGE in 0.5x TBE; settings: protein: recombinant; tags: His; label: none
[3] = molecular target: T1, SCL30; test: competition; mutated probe failed to compete with N1; 20 ul, 2 ug tRNA, 10 nM biotin-RNA, LightShift Chemiluminescent RNA EMSA kit buffer (salt and pH not stated), 30 min room temperature; 6% native PAGE in 0.5x TBE; settings: protein: recombinant; tags: His

AGAUUAAAGAAGAGGAAAGGAGAAGG (ssRNA) [AT1G53250 AGAAGA RNA probe]
binding result [1]: binds

AGAUUAAAGAAGAGGAAAGGAGAAGG (ssRNA) [AT1G53250 RNA, unlabeled competitor]
binding result [2]: binds

AGAUUAAUCUUCUGGAAAGGAGAAGG (ssRNA) [AT1G53250 mutated RNA probe (AGAAGA to UCUUCU)]
binding result [3]: no binding
